Reference: PMC8588329

Target: recombinant Plasmodium knowlesi lactate dehydrogenase (Plasmodium knowlesi)
Test: SEC; Superdex 200 10/300 GL, 50 mM phosphate buffer pH 7.4, 250 mM NaCl, 0.50 mL/min; elution volume 13 mL set against a calibration curve of protein standards

stoichiometry N: 4
Substance: recombinant Plasmodium knowlesi lactate dehydrogenase (enzyme)
